The test system of assay [1] is NF-κB activity (LMP-1) in EBV positive B721 cells. The settings on record: read-out: IC50, inhibition of B721 cell NF-κB activity; cited from earlier work.
The target in assay [2] is TMD5 (coumarin-labelled) (Epstein-Barr virus, UniProt P03230). As to the kind of experiment: FRET assay. The format is binding.
In assay [3] the test system is TMD5/TMD5 interaction (TMD5–ToxR). As to the kind of experiment: Dominant-negative ToxR assay in bacterial membranes. It counts as cell-based, Epstein–Barr virus. The conditions noted are these: co-expressed as ToxR* fusion with TMD5–ToxR in E. coli FHK12; result in words.
Assay [4] concerns the target coumarin-labelled LMP-1 transmembrane domain 5 (TMD5) peptide (Epstein-Barr virus). Nature of the assay: other fluorescence titration.
For assay [5] the target is unchanged. Nature of the assay: FRET or BRET. Background: Bioluminescence resonance energy transfer reports proximity on the nanometre scale.
Assay [6] has the same target. Nature of the assay: FRET or BRET. The source holds these as a separate data set.

Like-named read-outs stand apart in the source and are kept apart here. No end group written: not given here.

As a reminder, the IC50 is the concentration at which inhibition is half-maximal. Turning to `N=C(N)c1ccc(C=Cc2ccc(C(=N)N)cc2O)cc1` [NSC259242], in assay [1], the IC50 was 29.6 ± 6.6 µM. In general, Kd refers to the constant that tells how readily two partners part at equilibrium. A higher Kd goes with weaker binding. On to “KKKKWWKLWYFLVWFLDLIILILLLWWKKKK [anti-TMD5]”, for which the Kd in assay [2] is 0.04 ± 0.0067 µM. Regarding “KKKK-VFLWLWLIWIFIDWKLWLLYWLL-KKKK [anti-TMD5 scramble]”, the “quenching of TMD5-coumarin fluorescence and FRET signal compared to anti-TMD5” value in assay [2] (1.0 mM C14 betaine micelles, 20 mM HEPES, pH 7.4, result in words) was “much less quenching of TMD5-coumarin fluorescence and weaker FRET signal from FITC emission”. The “effect on TMD5 Miller unit” value in assay [3] is “did not inhibit the TMD5 Miller unit”.

B1: anti-TMD5 peptide (unlabelled) (designed binder)
peptide: WWKLWYFLVWFLDLIILILLLWW
As usually defined, the EC50 is the concentration at which the effect is half-maximal. On to B1, for which the EC50 in assay [4] was determined as 3.3 µM.

B2: FITC-tagged anti-TMD5 peptide (designed binder)
peptide: WWKLWYFLVWFLDLIILILLLWW
modifications: also: FITC label, position not given here
For orientation: stoichiometry N means a count of units in the complex or per binding partner. In assay [5], B2 yielded a Kd of 0.0678 µM and a stoichiometry N of 0.53. In assay [6], the Kd was 40 µM and the stoichiometry N was found to be 0.44.

(Values after PMC6761861 (Chemical Science, 2019).)
